Measurements from publication doi:10.1101/2025.08.18.670068 (2025).

How the values were obtained:
Assay in all cases: SPR
[1] = biological target: soluble CCR8 analogue BM6
[2] = biological target: soluble CCR8 analogue BM3
[3] = biological target: soluble CCR8 analogue BM5
[4] = biological target: soluble CCR8 analogue BM1
[5] = biological target: soluble CCR8 analogue BM7

Kd [1]: 552 nM
Kd [2]: 154 nM
Kd [3]: 629 nM
Kd [4]: 267 nM
Kd [5]: 252 nM
B1: mAb1 in full length human IgG1 format (antibody, V domains shown)
VH: QSVEESGGRLVTPGTPLTLTCTVSGFSLSNYAMIWVRQAPGEGLEWVGTISLGGYTYYANWAKGRFTISKTSTTVDLKISSPTTEDTATYFCARARWSTDSAIYTYAFDPWGPGTLVTVSS
VL: AYDMTQTPASVEVAVGGTVTIKCQASQSISSYLSWYQQKPGQRPELLIYKASTLASGVSSRFKGSGSGTQFTLTISDLEAADAATYYCQQGYTSSNIDNIFGGGTEVVVK
